In PMC5041982 (2016):
Where no end group is shown, it is not given here. [ ]: non-standard residue; d: D form. pY = N[C@@H](Cc1ccc(OP(=O)(O)O)cc1)C(=O)O

Biological target: T1, EGFR pY1068 phosphododecapeptide dodecapeptide surrounding Y1068 (Homo sapiens, UniProt P00533)
T1 chain: LPVPE[pY]INQSVP
Assay: microscale thermophoresis

B1: STAT3 127-722 (protein)
chain: GQANHPTAAVVTEKQQMLEQHLQDVRKRVQDLEQKMKVVENLQDDFDFNYKTLKSQGDMQDLNGNNQSVTRQKMQQLEQMLTALDQMRRSIVSELAGLLSAMEYVQKTLTDEELADWKRRQQIACIGGPPNICLDRLENWITSLAESQLQTRQQIKKLEELQQKVSYKGDPIVQHRPMLEERIVELFRNLMKSAFVVERQPCMPMHPDRPLVIKTGVQFTTKVRLLVKFPELNYQLKIKVCIDKDSGDVAALRGSRKFNILGTNTKVMNMEESNNGSLSAEFKHLTLREQRCGNGGRANCDASLIVTEELHLITFETEVYHQGLKIDLETHSLPVVVISNICQMPNAWASILWYNMLTNNPKNVNFFTKPPIGTWDQVAEVLSWQFSSTTKRGLSIEQLTTLAEKLLGPGVNYSGCQITWAKFCKENMAGKGFSFWVWLDNIIDLVKKYILALWNEGYIMGFISKERERAILSTKPPGTFLLRFSESSKEGGVTFTWVEKDISGKTQIQSVEPYTKQQLNNMSFAEIIMGYKIMDATNILVSPLVYLYPDIPKEEAFGKYCRPESQEHPEADPGSAAPYLKTKFICVTPTTCSNTI
Kd: 1.1 nM
